From article PMC10755785 (The Journal of Biological Chemistry, 2023)

Tests used:
[1] = molecular target: σ^s (RpoS), His-tagged (Escherichia coli) (UniProt P13445); experiment: pull-down
[2] = molecular target: σ^s (RpoS), His-tagged (Escherichia coli) (UniProt P13445); experiment: SEC
σ^s (RpoS), His-tagged = σ^s (RpoS), His-tagged (Escherichia coli, UniProt P13445 1-330); experiment: pull-down
Chain of σ^s (RpoS), His-tagged (P13445 whole entry): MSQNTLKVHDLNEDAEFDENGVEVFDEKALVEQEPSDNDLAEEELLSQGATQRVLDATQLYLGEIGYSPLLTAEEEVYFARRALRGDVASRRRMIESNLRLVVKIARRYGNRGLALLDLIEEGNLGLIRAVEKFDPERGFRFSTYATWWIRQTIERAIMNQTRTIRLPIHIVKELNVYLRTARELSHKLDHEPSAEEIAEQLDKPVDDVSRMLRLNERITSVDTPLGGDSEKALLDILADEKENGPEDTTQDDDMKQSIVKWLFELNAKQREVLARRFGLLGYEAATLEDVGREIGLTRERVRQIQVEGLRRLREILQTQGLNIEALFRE

Chain of σ^s (RpoS), His-tagged (Escherichia coli) (P13445 whole entry): as above

Molecule: RssB (wild type, full length) (from UniProt P0AEV1 1-337) (natural protein)
- fold increase in pull-down efficiency with beryllofluoride against without [1]: 5 fold

Molecule: RssB∼P (RssB phosphorylated with acetyl phosphate) (from UniProt P0AEV1 1-337) (natural protein)
- stoichiometry N [2]: 1 σ^s:RssB

B1: RssB^F129A;S131A (natural protein, Escherichia coli)
chain: MTQPLVGKQILIVEDEQVFRSLLDSWFSSLGATTVLAADGVDALELLGGFTPDLMICDIAMPRMNGLKLLEHIRNRGDQTPVLVISATENMADIAKALRLGVEDVLLKPVKDLNRLREMVFACLYPSMANARVEEEERLFRDWDAMVDNPAAAAKLLQELQPPVQQVISHCRVNYRQLVAADKPGLVLDIAALSENDLAFYCLDVTRAGHNGVLAALLLRALFNGLLQEQLAHQNQRLPELGALLKQVNHLLRQANLPGQFPLLVGYYHRELKNLILVSAGLNATLNTGEHQVQISNGVPLGTLGNAYLNQLSQRCDAWQCQIWGTGGRLRLMLSAE
- percent of WT binding (σ^s (RpoS), His-tagged): ~50 % of WT
